The values that follow are results of earlier work, collected in article PMC11053944.

The pKd is −log10 of the Kd, conventionally taken in molar units.

pKd: −log10 of the molar value.

Data set [1] has as its target Sba1 (Saccharomyces cerevisiae) (UniProt P28707). Put plainly: SPR. (In general: Surface plasmon resonance follows binding to a sensor surface in real time, without labels.)
The target is the same in data set [2]. Kind of data set: ITC. In general terms: ITC needs no label: the signal is the heat of the interaction.

Sba1 (Saccharomyces cerevisiae), sequence (P28707 2-216): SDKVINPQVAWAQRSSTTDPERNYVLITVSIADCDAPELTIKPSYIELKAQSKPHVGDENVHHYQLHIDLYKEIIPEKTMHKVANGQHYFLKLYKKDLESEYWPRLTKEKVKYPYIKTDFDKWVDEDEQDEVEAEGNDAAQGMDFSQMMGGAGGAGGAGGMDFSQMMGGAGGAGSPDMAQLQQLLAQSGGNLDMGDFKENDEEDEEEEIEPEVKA

Turning to HSP90 (from UniProt P02829), the pKd in data set [1] was 6.27; in data set [2], 5.76.
